According to patent EP4707393A1, “DOUBLE-STRANDED SIRNA, CONJUGATE THEREOF AND USE THEREOF” (CMS Research & Development Pte. Ltd., priority 2023, dated 2024):

How the values were obtained:
[1] = test system: PHH cells; experiment: Off-target assessment by RNA-sequencing in PHH cells; assay type: cell-based; conditions: vs PBS, 48 hours; for Downregulated differential genes / Total differential genes / Upregulated differential genes: DESeq2 padj ≤ 0.05 |log2FoldChange| ≥ 1.0
Method: • 1.1 Double-stranded siRNA conjugates • 1.2 PHH cells, purchased from Research Institute for Liver Diseases(Shanghai)Co. Ltd. • 1.3 Main reagents: InvitroGRO CP Medium (Cat. No.: BIOIVT-S03316), Fetal Bovine Serum (Cat. No.: ExCellBio-FSP500), Penicillin-Streptomycin (Cat. No.: Hyclone-SV30010), TRLzol Reagent (Cat. No.: Ambion-15596018).
The cryopreserved PHH was taken from the liquid nitrogen and thawed in a water bath at 37 °C. The fully thawed PHH was transferred to a 10% FBS InvitrogRO CP medium and blended well, and counted using a counter. The cell density was adjusted to 6 × 10^5 cells/mL.
siRNAs were diluted with RNase-free PBS to 10 times the final concentration (for example, diluted to 1000 nM if the test concentration is 100 nM). The diluted siRNAs were then added to a collagen-coated 12-well plate at 100 µL/well, with 1 concentration point, 3 replicated wells, and blank PBS as the negative control group. PHH cells at a density of 6 × 10^5 cells/mL were added to the collagen-coated 12-well plate at 900 µL/well. The final concentrations of the test compounds were […]. The cell plates were incubated in a 5% CO2, 37 ° C incubator for 48 hours. After 48 hours, the medium was removed, 600µL of Trizol was added per well to lyse the cells, and sent to Beijing Novogene Co., Ltd. for RNA-sequencing.
NEB Standard Library Preparation: Fragmented mRNAs were used as a template and random oligonucleotides as primers. The first strand of cDNA was synthesized in an M-MuLV reverse transcriptase system. The RNA strand was then degraded with RNaseH, and the second strand of cDNA was synthesized using a DNA polymerase I system with dNTPs as raw materials. The purified double-stranded cDNA underwent end repair, A-tailing, and adapter ligation for sequencing. The cDNA of approximately 250-300 bp was screened out by AMPure XP beads, PCR amplified, and the PCR product was purified again by AMPure XP beads to finally obtain the library. The kit used for library construction was NEBNext® Ultra ™ RNA Library Prep Kit for Illumina.
After the library construction, quantification was primarily performed using a Qubit2.0 Fluorometer, and the library was diluted to 1.5 ng/µL. The insert size of the library was then detected using an Agilent 2100 bioanalyzer. If the insert size meets expectations, the effective concentration of the library was accurately quantified by qRT-PCR (an effective concentration of the library higher than 2nM) to ensure the quality of the library.
After passing quality control of the library, different libraries were pooled according to the effective concentration and target output data volume for Illumina sequencing. The basic principle of sequencing is Sequencing by Synthesis. Four fluorescently labeled dNTPs, DNA polymerase, and adapter primers were added to the sequencing flow cell for amplification. As each sequencing cluster extends the complementary strand, the incorporation of each fluorescently labeled dNTP can release the corresponding fluorescence. The sequencer captures the fluorescence signal and converts the optical signals into sequencing peaks through computer software, thereby obtaining the sequence information of the test fragments.
Experimental results were obtained through software analysis
Differential gene analysis takes DESeq2 padj ≤ 0.05 |log2FoldChange| ≥ 1.0 as the threshold. Table 8. Differential gene statistics

[2] = test system: LPA mRNA; experiment: In vivo efficacy in LPA-HDI mouse model (liver LPA mRNA); set-up: species or system BALB/c mouse; conditions: 3 mg/kg single subcutaneous injection, Day 14, relative to PBS blank group, 4 mice per group
Method: The knockdown effect of the test double-stranded siRNA conjugate on the target gene LPA upon entry into the mouse is evaluated by rapid high-pressure injection of the physiological saline containing recombinant plasmid pcDNA-LPA carrying the target gene via the tail vein.
pcDNA-LPA plasmid, BALB/c mouse, PBS (phosphate buffer), and conjugates of the present invention.
Six-week-old female BALB/c mice were ordered and acclimated/quarantined for three days upon arrival in the animal room.
On Day 0, the mice were randomly grouped based on body weight data. After grouping, all mice were given a single administration via subcutaneous injection, with a dose volume of 10 mL/kg. Mice in Group 1 received PBS; mice in the other groups received the conjugates (dissolved in PBS).
On Day 13 post-administration, all mice were injected with normal saline containing the pcDNA-LPA plasmid via the tail vein within 5 seconds. The injection volume (mL) = mouse body weight (g) × 8%. The amount of plasmid injected per mouse was 10 µg.
On Day 14 post-administration, all groups of mice were euthanized by CO2 inhalation, and 2 liver samples were collected from each mouse. Liver samples were treated overnight with RNAlater at 4 °C, then RNAlater was removed, and stored at -80 °C for detection of LPA gene expression levels.

[3] = Melting temperature (Tm) by UV absorption at 260 nm; assay type: physicochemical; conditions: phosphate buffer solution; average of at least two independent measurements
Method: The Tm value was determined by recording the change in UV absorption at 260 nm of DNA/RNA in phosphate buffer solution as the temperature increased.
Table 6 Melting temperature (Tm) test instrument parameters
The melting temperature (Tm) was calculated from the first derivative of the smoothed heating curve, and the reported value was the average of at least two independent measurements. Table 7 Melting temperatures (Tm) of conjugates of the present disclosure

Z46: siRNA conjugate: sense SEQ ID NO:43, ligand D01 at 3' end of sense strand, antisense SEQ ID NO:66 (sense CAGCCCCTTATTGTTANACGA; antisense TCTCGTATNACAATAAGGGGCTG; ligand D01 at sense 3' end; listed as RNA; modified_base 1: mod_base = OTHER; note = 2'-O-methylcytidine; modified_base 2: mod_base = OTHER; note = 2'-O-methyladenosine; modified_base 3: mod_base = OTHER; note = 2'-O-methylguanosine; modified_base 4..7: mod_base = OTHER; note = 2'-O-me; note = 2'-O-methyluridine; modified_base 4: mod_base = OTHER; note = 2'-fluorocytidine; modified_base 5: mod_base = OTHER; note = 2'-O-methylg)
Downregulated differential genes [1]: 0 | Total differential genes [1]: 0 | Upregulated differential genes [1]: 0 | % Downregulation of LPA mRNA [2]: 89.0% | Melting temperature Tm [3]: 76.75 °C

Z42: siRNA conjugate: sense SEQ ID NO:49, ligand D01 at 3' end of sense strand, antisense SEQ ID NO:80 (sense CAGCCCCTTATTGTTATACGA; antisense NCGTATNACAATAAGGGGCNGTT; ligand D01 at sense 3' end; listed as RNA; modified_base 1: mod_base = OTHER; note = 2'-O-methylcytidine; modified_base 2: mod_base = OTHER; note = 2'-O-methyladenosine; modified_base 3: mod_base = OTHER; note = 2'-O-methylguanosine; modified_base 4..7: mod_base = OTHER; note = 2'-O-me; note = n is B33; note = 2'-deoxycytidine; modified_base 4: mod_base = OTHER; note = 2'-O-methyluridine; m)
Maximum up-regulation folds [1]: 1.9 | Downregulated differential genes [1]: 0 | Total differential genes [1]: 4 | Upregulated differential genes [1]: 4 | % Downregulation of LPA mRNA [2]: 78.0% | Melting temperature Tm [3]: 67.75 °C
